Experimental data published in patent US8377701B2, “Specific ligands to sortilin” (H. Lundbeck A/S, priority 2008, dated 2013).
Where no end group is shown, it is not given here.

T1: S316E mutant sSortilin (Homo sapiens, UniProt Q99523, S316E)
T1 construct: His6 (C); made in house; host or cells: CHO cells
T1 sequence (Q99523 78-755 S316E): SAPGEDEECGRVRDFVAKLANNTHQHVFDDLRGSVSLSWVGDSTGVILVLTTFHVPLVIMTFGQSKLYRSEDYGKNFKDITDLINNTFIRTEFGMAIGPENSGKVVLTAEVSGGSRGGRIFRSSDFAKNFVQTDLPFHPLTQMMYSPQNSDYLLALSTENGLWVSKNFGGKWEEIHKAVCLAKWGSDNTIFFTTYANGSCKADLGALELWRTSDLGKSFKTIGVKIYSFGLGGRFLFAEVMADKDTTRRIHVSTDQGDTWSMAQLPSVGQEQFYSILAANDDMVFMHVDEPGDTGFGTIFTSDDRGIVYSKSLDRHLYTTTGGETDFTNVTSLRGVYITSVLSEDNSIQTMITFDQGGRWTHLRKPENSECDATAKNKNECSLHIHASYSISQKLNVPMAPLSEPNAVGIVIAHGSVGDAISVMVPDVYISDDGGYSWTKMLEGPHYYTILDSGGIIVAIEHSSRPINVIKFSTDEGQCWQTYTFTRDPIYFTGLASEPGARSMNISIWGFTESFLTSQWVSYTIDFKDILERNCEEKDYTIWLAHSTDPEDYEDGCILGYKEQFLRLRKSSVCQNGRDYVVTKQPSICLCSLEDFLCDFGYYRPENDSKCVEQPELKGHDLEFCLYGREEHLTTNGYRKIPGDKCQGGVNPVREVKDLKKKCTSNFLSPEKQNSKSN

T2: sSortilin (Homo sapiens, UniProt Q99523)
T2 construct: Soluble Sortilin (sSortilin); His6 (C); made in house; host or cells: CHO-K1
T2 sequence (Q99523 78-755 limits assumed): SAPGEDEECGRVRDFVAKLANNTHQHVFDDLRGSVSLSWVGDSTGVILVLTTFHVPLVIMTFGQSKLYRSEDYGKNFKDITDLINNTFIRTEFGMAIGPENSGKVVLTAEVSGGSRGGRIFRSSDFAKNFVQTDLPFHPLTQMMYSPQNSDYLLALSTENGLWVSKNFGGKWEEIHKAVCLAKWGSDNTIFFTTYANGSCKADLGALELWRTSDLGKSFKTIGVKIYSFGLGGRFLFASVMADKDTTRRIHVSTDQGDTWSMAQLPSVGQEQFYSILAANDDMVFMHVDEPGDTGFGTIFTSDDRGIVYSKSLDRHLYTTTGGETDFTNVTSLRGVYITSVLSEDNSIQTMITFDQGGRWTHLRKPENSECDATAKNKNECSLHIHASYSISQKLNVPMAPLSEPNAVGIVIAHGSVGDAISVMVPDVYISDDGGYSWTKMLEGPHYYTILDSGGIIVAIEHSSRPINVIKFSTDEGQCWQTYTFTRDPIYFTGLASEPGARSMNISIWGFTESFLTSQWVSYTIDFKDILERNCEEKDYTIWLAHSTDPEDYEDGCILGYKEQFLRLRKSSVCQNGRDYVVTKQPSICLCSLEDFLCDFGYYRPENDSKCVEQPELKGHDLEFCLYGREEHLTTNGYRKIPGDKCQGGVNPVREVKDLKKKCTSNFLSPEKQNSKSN


Columns and labels:
S316E mutant sSortilin = molecular target: T1, S316E mutant sSortilin; test: Surface plasmon resonance: ligand binding to purified sSortilin S316E mutant; conditions: compared with wtSortilin
Method: (§1) Surface plasmon resonance (SPR) measurements were performed on a BIAcore 2000 instrument (Biacore Sweden) equipped with CM5 sensor chips maintained at 20° C. A continuous flow of HBS buffer (10 mM HEPES pH 7.4, 3.4 mM EDTA, 150 mM NaCl, 0.005% surfactant P20) passing over the sensor surface was maintained at 5 μl/min. […] A sortilin solution (320 μl, 5 μg/ml in 10 mM sodium acetate pH 4.0) was then injected over flow cells 1 and 2 at a flow rate of 15 μl/min. Remaining binding sites in all three flow cells were blocked by injection (5 μl/min) of 70 μl of 1 M ethanolamine pH 8.5. […] Screening of the samples was performed by injecting aliquots of 50 μl, at concentrations of 0.1-8 μM, through all flow cells with a flow rate of 5 μl/min. Unless otherwise stated, the samples were dissolved in 10 mM HEPES pH 7.4, 150 mM NaCl, 1.5 mM CaCl2, 1 mM EGTA, 0.005% surfactant P20. Sample buffer was also used as running buffer. The BIAcore response is expressed in relative response units (RU), i.e. the difference in response between the immobilized protein flow cell and the corresponding control flow cell (activated and blocked but without protein). Regeneration of the sensor chip after each cycle of analysis was performed by injecting 20 μl of 10 mM glycine/HCl pH 4.0, 500 mM NaCl, 20 mM EDTA and 0.005% surfactant P20. For calciumfree conditions, HBS containing 20 mM EDTA was used as sample as well as running buffer.

sSortilin [1] = molecular target: T2, sSortilin; test: Surface plasmon resonance: ligand binding to immobilized sSortilin in absence or presence of Neurotensin derived peptides; conditions: for inhibition of binding of Sort-pro (GST-Sort-pro) to sSortilin: FIG. 3A+B
Method: as §1

sSortilin [2] = molecular target: T2, sSortilin; test: Surface plasmon resonance affinity of NGFpro and icosapeptides for immobilized sSortilin; assay type: binding; conditions: BIAcore 3000, 20° C., read-out: dissociation constant (Kd)
Method: All measurements were performed on a BIAcore 3000 instrument (Biacore Sweden) maintained at 20° C. A continuous flow of buffer F (10 mM HEPES pH=7.4, 150 mM (NH4)2SO4, 1.5 mM CaCl2, 1.5 mM EGTA and 0.005% Tween-20) was passed over the CM5 chip sensor surface at 5 μl/min. The affinity of NGFpro and the peptides for immobilized sSortilin were determined. The dissociation constant (Kd) for NGFpro was ˜10 nM and for peptide-4 (SEQ ID NO:51) ˜5 μM. The ability of the peptides to compete with NGFpro for binding to sSortilin was tested as well.

| Molecule | binding to S316E mutant (S316E mutant sSortilin) | inhibition of binding of Sort-pro (GST-Sort-pro) to sSortilin (sSortilin [1]) | other results |
| --- | --- | --- | --- |
| BDNF: Mature BDNF, SEQ ID NO. 7 residues 128 to 246, purchased from R&D Systems | affinities similar to that of wtSortilin | – | – |
| Tyr-Ile-Leu [YIL] | – | full inhibition | inhibition of binding of the prodomain of NGF to sSortilin (sSortilin [1]; FIG. 3C, not as efficiently as full length NT): hampers binding; inhibition of binding of RAP to sSortilin (sSortilin [1]; FIG. 3D, not as efficiently as full length NT): hampers binding; affinity for Sortilin (sSortilin [1]; summary statement): high affinity |
| ITVDPRLFKKRRLRSPRVLF-NH2 [peptide-4] | – | – | Kd (sSortilin [2]): ~5 µM |
| Arg8-Arg-Pro-Tyr-Ile-Leu13-NH2 [reference compound] | – | fails to inhibit | – |
| Sort-pro: Sortilin's own propeptide, residues 34-77 of SEQ ID NO:1, fused to GST (QDRLDAPPPPAAPLPRWSGPIGVSWGLRAAAAGGAFPRGGRWRR; also: fused to GST) | no binding | – | – |
| NGFpro: propeptide of Nerve Growth Factor, residues 19-121 of SEQ ID NO:6 (protein, left off: a dimerising Fc or GST) EPHSESNVPAGHTIPQVHWTKLQHSLDTALRRARSAPAAAIAARVAGQTRNITVDPRLFKKRRLRSPRVLFSTQPPREAADTQDLDFEVGGAAPFNRTHRSKR | affinities similar to that of wtSortilin | – | – |
